Measured values taken from paper PMC9202080, “Evolution of homo‐oligomerization of methionine S‐adenosyltransferases is replete with structure–function constrains” (Protein Science : A Publication of the Protein Society, 2022).
Numbering of substitutions follows the chain as printed. Names may count otherwise.

Experiments:
NgMAT [1] = target: T1, NgMAT (Neisseria gonorrhoeae, UniProt Q5FAC0); assay: size exclusion chromatography, ligand-induced tetramerization; type: binding; conditions: 10 uM NgMAT; AMP-PNP alone or with methionine
T1 construct: gene metK; full length, C-terminal His6 tag, codon-optimised synthetic gene, E. coli BL21(DE3), dimer without substrates, functional homotetramer with substrates
T1 sequence (Q5FAC0 1-389): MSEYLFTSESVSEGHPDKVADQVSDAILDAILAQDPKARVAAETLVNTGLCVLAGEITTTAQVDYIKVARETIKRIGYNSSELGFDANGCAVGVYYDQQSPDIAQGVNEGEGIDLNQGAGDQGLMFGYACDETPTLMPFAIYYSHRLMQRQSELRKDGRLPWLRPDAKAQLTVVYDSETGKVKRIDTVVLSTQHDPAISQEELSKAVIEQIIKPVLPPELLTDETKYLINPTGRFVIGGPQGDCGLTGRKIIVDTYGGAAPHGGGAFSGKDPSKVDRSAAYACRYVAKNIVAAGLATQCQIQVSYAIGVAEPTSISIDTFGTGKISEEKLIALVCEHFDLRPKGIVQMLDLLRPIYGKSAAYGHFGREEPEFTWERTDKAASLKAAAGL

NgMAT [2] = target: T1, NgMAT; assay: SAM formation, size exclusion chromatography; type: biochemical
[3] = target: the molecule itself; assay: SEC; Superdex 200 Increase, 25 mM TrisHCl, 150 mM KCl, 1 mM DTT; protein diluted from a 300 μM stock, pre-incubated diluted for an hour, then injected; EcMAT 1.56–100 μM, NgMAT 10–100 μM; no substrates
[4] = target: the molecule itself; assay: SEC; diluted from ~300 μM stocks to 10 μM, incubated 100 hr at 25°C in 50% glycerol, sampled by SEC until equilibrium (~75 hr); Kd calculated from the tetrameric fraction; tetramer to dimers
[5] = target: the molecule itself; assay: crystal structure; LpMAT + 5 mM AMPPNP + 5 mM methionine, 2.82 Å, space group P1, eight copies in the asymmetric unit
[6] = target: the molecule itself; assay: crystal structure; EcMATmut + 5 mM AMPPNP + 5 mM methionine, 1.6 Å, space group P42212, one copy in the asymmetric unit
[7] = target: the molecule itself; assay: SEC; 10 μM NgMAT pre-incubated with saturated methionine and ATP together
[8] = target: the molecule itself; assay: SEC; 10 μM NgMAT pre-incubated with saturated methionine alone or ATP alone

## Nc1ncnc2c1ncn2[C@@H]1O[C@H](COP(=O)(O)OP(=O)(O)NP(=O)(O)O)[C@@H](O)[C@H]1O [AMP-PNP]
NgMAT [1]
  size exclusion chromatography, ligand-induced tetramerization: We found that AMP‐PNP increased the tetrameric species substantially

## Nc1ncnc2c1ncn2[C@@H]1O[C@H](COP(=O)(O)OP(=O)(O)OP(=O)(O)O)[C@@H](O)[C@H]1O [ATP]
NgMAT [2]; 10 uM NgMAT with methionine
  SAM formation, size exclusion chromatography: in the presence of both substrates we saw a marked shift of NgMAT toward tetramerization

## CSCC[C@H](N)C(=O)O [methionine]
NgMAT [2]; 10 uM NgMAT with ATP
  SAM formation, size exclusion chromatography: in the presence of both substrates we saw a marked shift of NgMAT toward tetramerization

B1: Escherichia coli methionine S-adenosyltransferase (enzyme)
chain: AKHLFTSESVSEGHPDKIADQISDAVLDAILEQDPKARVACETYVKTGMVLVGGEITTSAWVDIEEITRNTVREIGYVHSDMGFDANSCAVLSAIGKQSPDINQGVDRADPLEQGAGDQGLMFGYATNETDVLMPAPITYAHRLVQRQAEVRKNGTLPWLRPDAKSQVTFQYDDGKIVGIDAVVLSTQHSEEIDQKSLQEAVMEEIIKPILPAEWLTSATKFFINPTGRFVIGGPMGDCGLTGRKIIVDTYGGMARHGGGAFSGKDPSKVDRSAAYAARYVAKNIVAAGLADRCEIQVSYAIGVAEPTSIMVETFGTEKVPSEQLTLLVREFFDLRPYGLIQMLDLLHPIYKETAAYGHFGREHFPWEKTDKAQLLRDAAGLK
notes: methionine S-adenosyltransferase (MAT) of Escherichia coli; Homotetramer (dimer of dimers) in solution; the self-association rows are of this chain with itself; also called EcMAT; E. coli MAT; source: E. coli BL21 (DE3), pET24a, purified (Ni-NTA)
[3]
  stoichiometry N: 4
[4]
  Kd: 8.2 µM

B2: Lactiplantibacillus plantarum methionine S-adenosyltransferase (enzyme, UniProt Q88XB8 1-395, looked up)
chain: MSERHLFTSESVSEGHPDKIADQISDAILDAMLAQDPQARVAVETSVTTGLVLVFGEVSTKAYVDIQKVVRDTIKSIGYVDGQYGFDGDNCAVLVSLDEQSPDIAQGVDDSLETRSGDADPLDQIGAGDQGMMFGYAINETPELMPLPIALSHRLMRKIAALRKDGTIKWLRPDAKAQVTVEYDEDNQPKRIDTVVLSTQHDPDVDLDTIRQTVIDQVIKAVLPADLLDDQTKYLVNPTGRFVIGGPQGDAGLTGRKVIVDTYGGFAHHGGGAFSGKDATKVDRSASYAARYIAKNVVAAGLADQVEVQLAYAIGVAEPVSIAVDTAGTGKVSDEALINAIRENFDLRPAGIIKMLDLQRPIYRQTAAYGHFGRTDIDLPWEHTDKVDALKAVFK
notes: also called LpMAT; MAT from Lactiplantibacillus planatrum; source: E. coli BL21 (DE3), pET24a, purified (Ni-NTA)
[5]
  stoichiometry N: 2

B3: Escherichia coli methionine S-adenosyltransferase E67K K98Q (enzyme)
chain: MAKHLFTSESVSEGHPDKIADQISDAVLDAILEQDPKARVACETYVKTGMVLVGGEITTSAWVDIEKITRNTVREIGYVHSDMGFDANSCAVLSAIGQQSPDINQGVDRADPLEQGAGDQGLMFGYATNETDVLMPAPITYAHRLVQRQAEVRKNGTLPWLRPDAKSQVTFQYDDGKIVGIDAVVLSTQHSEEIDQKSLQEAVMEEIIKPILPAEWLTSATKFFINPTGRFVIGGPMGDCGLTGRKIIVDTYGGMARHGGGAFSGKDPSKVDRSAAYAARYVAKNIVAAGLADRCEIQVSYAIGVAEPTSIMVETFGTEKVPSEQLTLLVREFFDLRPYGLIQMLDLLHPIYKETAAYGHFGREHFPWEKTDKAQLLRDAAGLK
notes: methionine S-adenosyltransferase (MAT) of Escherichia coli with the salt-bridge residues of the small interface swapped to those of NgMAT; made from the EcMAT construct by site directed mutagenesis; also called EcMATmut; E. coli E67K K98Q; source: E. coli BL21 (DE3), pET24a, purified (Ni-NTA)
[6]
  stoichiometry N: 4
[4]
  Kd: 90.3 µM

B4: Neisseria gonorrhoeae methionine S-adenosyltransferase (enzyme, UniProt B4RQ36 1-389, looked up)
chain: T1 sequence (Q5FAC0 1-389) with Q200H
notes: methionine S-adenosyltransferase of Neisseria gonorrhoeae; also called NgMAT; N. gonorrhoeae MAT; source: E. coli BL21 (DE3), pET24a, purified (Ni-NTA)
[7]
  stoichiometry N: 4
[8]
  stoichiometry N: 2
